Test results published in publication PMC3093369.
Values joined by “and” are separate entries in the source; they are usually repeats but may differ in a detail not shown here. Equal entries are not always repeated.

Columns and labels:
[1] = biological target: recombinant Fasciola hepatica helminth defence molecule-1 (FhHDM-1) (Fasciola hepatica); assay: AUC; sedimentation velocity, 0.1 mg/ml, 20°C, 10 mM Tris, 50 mM NaF, pH 7.3, 40,000 rpm; c(s) and c(M) distributions (SEDFIT)
[2] = biological target: recombinant Fasciola hepatica helminth defence molecule-1 (FhHDM-1) (Fasciola hepatica); assay: AUC; sedimentation velocity, 0.1 mg/ml, 20°C, 10 mM sodium citrate, 50 mM NaF, pH 4.5, 40,000 rpm; c(s) and c(M) distributions (SEDFIT)

Which results are given for “recombinant Fasciola hepatica helminth defence molecule-1 (FhHDM-1) (natural protein)”?
stoichiometry N [1]: 3; stoichiometry N [2]: 2 and 5
